Assay results published in PMC9020740.

These substances were tested against Canine parvovirus nonstructural protein 2 (NS2), made in infection (canine parvovirus (CPV) type 2) (assay: proximity ligation; PLA (Duolink In Situ Orange Mouse/Rabbit) in wt CPV-infected NLFK cells, fixed 24 h after infection; anti-NS2 antibody paired with an antibody against the host protein; nuclear PLA foci counted from 3D confocal data, n = 15).

Substance	PLA foci/nucleus (PLA foci/nucleus)
macro-H2A.1 of NLFK (feline kidney) cells (natural protein)	40
SSRP1 of NLFK (feline kidney) cells (natural protein)	3.7
MDC1 of NLFK (feline kidney) cells (natural protein)	22
SMARCA5 of NLFK (feline kidney) cells (natural protein)	6.5

The substances below were run against NS2-EGFP (canine parvovirus nonstructural protein 2 fused to EGFP) (canine parvovirus (CPV) type 2) (assay: proximity ligation; PLA (Duolink In Situ Orange Mouse/Rabbit) in noninfected HeLa cells transfected with NS2-EGFP, fixed 20 h after transfection; anti-GFP paired with an antibody against the host protein; nuclear PLA foci counted from 3D confocal data, n = 15).

Substance	PLA foci/nucleus (PLA foci/nucleus)
nucleosome-remodeling helicase matrix-associated actin-dependent regulator of chromatin A5 (from UniProt O60264 1-1052) (natural protein)	55
structure specific recognition protein SSRP1 (FACT complex subunit) (from UniProt Q08945 1-709) (natural protein)	7.5
core histone macro-H2A.1 (from UniProt O75367 1-369) (natural protein)	135
